Results: US20240226186A9, “OBLIGATE ANAEROBIC HUMAN INTESTINAL MICROBE FOR CANCER TREATMENT, AND USE THEREOF” (HEALTHBIOME, priority 2019, published 2024)

B1: HB03-03: protein produced by the HB03 strain, SEQ ID NO 2, overexpressed in E. coli and purified (protein)
chain: IPESSVPAAAVSSVKGAYPNAGPIEWDSEMHGMERIYEAEFRINGFQFDVKIAPDGKIVRIKEEIAASSLPEAVRASVLKRYPGCRIKEAEKITEGELVRYKVEVADSRDDYDVLIAPDGNILHVDR
modifications: HB03-03
B2: HB03-01: protein produced by the HB03 strain, SEQ ID NO 1, overexpressed in E. coli and purified (protein)
chain: IVNSKRSELDKKISIAAKEIKSANAAEITPSRSSNEELEKELNRYAKAVGSLETAYKPFLASSALVPTTPTAFQNELKTFRDSLISSCKKKNILITDTSSWLGFQVYSTQAPSVQAASTLGFELKAINSLVNKLAECGLSKFIKVYRPQLPIETPANNPEESDEADQAPWTPMPLEIAFQGDRESVLKAMNAITGMQDYLFTVNSIRIRNERMMPPPIANPAAAKPAAAQPATGAASLTPADEATAPAAPAIQQVIKPYMGKEQVFVQVSLNLVHFNQPKAQEPSED
modifications: HB03-01

Legend:
[1] = system: MC38 colorectal cancer cells; experiment: Tumor growth in mice inoculated with MC38 colorectal cancer cells; type: in vivo, C57BL/6 JAX mice; settings: administered 5 times until day 16 with 2-day intervals from day 5 (FIG. 19)
Description: 6- to 8-week old male C57BL/6J JAX and BALB/c mice purchased from Daehan Biolink were used. Each of the mice was housed in a cage and was maintained under a controlled environment (12-hour light/dark cycle, light-off at 7 pm) with free access to feed and water ad libitum. Tumorigenesis was induced by injecting pancreatic cancer cells (Panc02), melanoma cells (B16F10), glioma cells (GL261), sarcoma cells (MCA205) colorectal cancer cells (MC38) and lung cancer cells (LLC) to the C57BL/6 JAX mice and injecting colorectal cancer cells (CT26) to the BALB/c mice. Specifically, 1×10^7 cells/100 μL of Panc02, 2×10^5 cells/100 μL of B16F10, 5×10^5 cells/100 μL of GL261, 5×10^5 cells/100 μL of MCA205, 5×10^5 cells/100 μL of MC38, 5×10^5 cells/100 μL of LLC or 5×10^5 cells/100 μL of CT26 tumor cells were subcutaneously injected to the mice. Tumor size was measured with 2- or 3-day intervals until the end of the experiment, and tumor volume was calculated as length×width^2×0.5. In order to investigate the change in tumor size and immune environment owing to HB03 and its fragment, intestinal contents were recovered, immersed in liquid nitrogen and then kept at −80° C. All animal experimental procedures were approved by the Animal Care and Use Committee of Korea Research Institute of Bioscience and Biotechnology. […]

caspase-3 = experiment: Western blot of caspase-3 activity level in lung cancer cells; type: cell-based; settings: LLC lung cancer cells, 10 μg/mL for 24 hours (FIG. 18C)
Method: (§1) Then, it was investigated whether the purified HB03-01 and HB03-03 proteins affect the proliferation or apoptosis of cancer cells. Specifically, after treating colorectal cancer cells (CT26) and lung cancer cells (LLC) with the HB03-derived protein HB03-01 at concentrations of 0 (untreated), 0.1, 1.0 or 10 μg/mL or with HB03-03 at 10 μg/mL, the proliferation of the cancer cells and the activity of the apoptosis-regulating enzyme caspase-3 were investigated.
Western blot was conducted to investigate the activity level of caspase-3. Lung cancer cells treated with 10 μg/mL of HB03-01 or HB03-03 for 24 hours were homogenized in an ice-cold 20 mM Tris-HCl buffer (pH 7.5) containing 2 mM EDTA (ethylenediaminetetraacetic acid), 0.5 mM EGTA (ethylene glycol tetraacetic acid), 300 mM sucrose and 2 mM PMSF (phenylmethylsulfonyl fluoride). After electrophoresing 50 μg of proteins on 15% SDS-PAGE (sodium dodecyl sulfate-polyacrylamide gel electrophoresis) gel, they were transferred onto a PVDF (polyvinylidene fluoride) membrane using a semidry transfer system (Hoefer, Holliston, MA, USA). Non-specific binding was blocked by incubating with 5% non-fat dry milk. […] The immune complexes were detected using an ECL detection kit (Amersham Biosciences Korea, Seoul, Korea) and auto-radiographed onto an X-ray film. […]

lung cancer cells (LLC) = experiment: MTT assay, proliferation of lung cancer cells; type: cell-based; settings: LLC, 0.1, 1.0 or 10 μg/mL for 48 hours, 2-DG 20 mM (FIG. 18B)
Method: as §1
(§2) MTT assay was conducted to investigate the change in the proliferation of the cancer cells. The cancer cells were cultured using a DMEM medium (Gibco, USA) for 24 hours on a 96-well plate at 1×10^4 cells/well in a 5% CO2 incubator at 37° C. A low-glucose condition was maintained by treating with 2-deoxyglucose (2-DG) to a final concentration of 20 mM. After culturing for 6 hours, HB03-01 was treated at a concentration of 0, 0.1, 1.0 or 10 μg/mL for 48 hours. After adding 10 μL of an MTT solution, the cells were cultured further for 2 hours. After removing the medium from the 96-well plate and dissolving a formazan formed on the plate with 100 μL of DMSO, absorbance was measured at 540 nm using an ELISA reader (Model 680, BioRad). A control group was treated with 0 μg/mL HB03-01 (untreated), and the measurement values were represented as relative cell survivability (%) with respect to the number of cells in the control group as 100%.

[2] = system: colorectal cancer cells (CT26); experiment: MTT assay, proliferation of colorectal cancer cells; type: cell-based; settings: CT26, 0.1, 1.0 or 10 μg/mL for 48 hours, 2-DG 20 mM (FIG. 18A)
Method: as §1, §2

Molecule | Tumor growth vs control group, post-treatment with HB03-derived protein [1] | Activation of apoptosis-regulating enzyme (caspase-3) (caspase-3) | Proliferation of lung cancer cells (relative cell survivability) (lung cancer cells (LLC)) | Proliferation of colorectal cancer cells (relative cell survivability) [2]
B1 | significantly inhibit tumor growth | activated |  | 
B2 | significantly inhibit tumor growth | activated | significantly decreased | significantly decreased
